For 3 variants, response results are on record in publication PMC10797690, “The SIRT3-ATAD3A axis regulates MAM dynamics and mitochondrial calcium homeostasis in cardiac hypertrophy” (International Journal of Biological Sciences, 2024).

To fix the notation:
B1: ATAD3A-Flag [not stated] / itself (parent)
chain: MSWLFGIKGPKGEGTGPPLPLPPAQPGAESGGDRGAGDRPSPKDKWSNFDPTGLERAAKAARELEHSRHAKEALNLAQMQEQTLQLEQQSKLKEYEAAVEQLKSEQIRVQAEERRKTLNEETRQHQARAQYQDKLARQRYEDQLKQQQLLNEENLRKQEESVQKQEAIRRATVEREMELRHKNEMLRVEAEARARAKADRENADIIREQIRLKAAEHRQTILESIRTAGTLFGEGFRAFVTDWDKVTATVAGLTLLAVGVYSAKNATSVAGRYIEARLGKPSLVRETSRISVLEALRHPIQVSRRLVSRPQDALEGVILSPSLEARVRDIAIATRNTKKNKSLYRNVLMYGPPGTGKTLFAKKLALHSGMDYAIMTGGDVAPMGREGVTAMHKVFDWASTSRRGLLLFVDEADAFLRKRATEKISEDLRATLNAFLHRTGQHSNKFMLVLASNQPEQFDWAINDRIDEMVCFALPQREERERLVRMYFDKYVLKPATEGKQRLKVAQFDYGKKCSEVAQLTAGMSGREIAQLAVAWQAMAYSSEDGVLTEAMMDARVQDAVQQHQQKMQWLKVERPDSEASKPPHPSLLSC

The assay covers variants of B1. Nature of the assay: native gel electrophoresis (-DTT), anti-Flag immunoblot, oligomer band quantified. As to conditions: with itself, H9c2 cells, n = 3, mean ± SEM, parent: 1, read off a plot. A general note: In western blotting, separated proteins are transferred to a membrane and probed.
For the variant chain 1 K134Q, the response was 0.16 arbitrary.
To chain 1 K134E belongs 1 arbitrary; to chain 1 K134A, 0.42 arbitrary.
